Target: NFATc2 full length;cJun full length (;, UniProt Q13469-2;P05412 1-921;1-331, |)
Assay: DNA pull-down, Western blot

## GATAATATTTTTCCAGAATTACACAAATTCTGGAAAAATATTATC (structured_DNA, 5' biotin) [-45 NFAT hairpin]
  binding result: binds

Source: PMC3686915
